From US20200078442A1 (ARCH BIOPARTNERS, published 2020)
Ends that are not written are not given here.

B1: human membrane dipeptidase (DPEP-1) (protein)
chain: DFFRDEAERIMRDSPVIDGHNDLPWQLLDMFNNRLQDERANLTTLAGTHTNIPKLRAGFVGGQFWSVYTPCDTQNKDAVRRTLEQMDVVHRMCRMYPETFLYVTSSAGIRQAFREGKVASLIGVEGGHSIDSSLGVLRALYQLGMRYLTLTHSCNTPWADNWLVDTGDSEPQSQGLSPFGQRVVKELNRLGVLIDLAHVSVATMKATLQLSRAPVIFSHSSAYSVCASRRNVPDDVLRLVKQTDSLVMVNFYNNYISCTNKANLSQVADHLDHIKEVAGARAVGFGGDFDGVPRVPEGLEDVSKYPDLIAELLRRNWTEAEVKGALADNLLRVFEAVEQASNLTQAPEEEPIPLDQLGGSCRTHYGYSS
B2: GFE-1 peptide (CGFECVRQCPERC) (peptide)
peptide: CGFECVRQCPERC
modifications: cysteine pairing not given here; also: conjugated with Alexa-488 or Alexa-568, attachment site not given here
B3: LSALT peptide (LSALTPSPSWLKYKAL) (peptide)
peptide: LSALTPSPSWLKYKAL
modifications: also: Alexa-488 conjugate in binding assays, site not given here
notes: Phage-display derived peptide; also called Metablok

Assays:
[1] = molecular target: T1, LSALT peptide (LSALTPSPSWLKYKAL)
T1 chain: LSALTPSPSWLKYKAL

human DPEP2 = molecular target: T2, human DPEP2 (human, UniProt Q9H4A9 33-463); assay: immunofluorescence microscopy of Alexa-488 peptide on transfected Cos-1 cells
T2 construct: whole, on cells; Transiently expressed on Cos-1 cells
Experimental: (§1) Cos-1 cells were transiently transfected with either 3 μg of human DPEP-1, DPEP2, or DPEP3 gene using lipofectamine 2000 (Invitrogen) reagent in OptiMEM medium. 24 hours after transfection, DPEP-1, DPEP2, or DPEP3 expressing cells were re-seeded on collagen coated (neutralized) wells in 24 well plates and allowed to grow for 24 hours at 37° C. 24 hours after seeding, media was removed and cells were washed with PBS. Cells were blocked with FBS/NBSA/Tween in PBS for 30 minutes on ice. Cells were then washed with PBS and incubated with LSALT or GFE-1, conjugated with Alexa-488 (green). After incubation, cells were washed with PBS and stained with DAPI for 5 minutes on ice. Cells were then washed with PBS and fixed using 4% paraformaldehyde and immunofluorescence microscopy was performed to assess binding. Representative photomicrographs are shown for each experimental condition (n=3) in FIG. 6A. Proteins from DPEP-1, DPEP2 and DPEP3 transfected cells were isolated after 48 hours using octyl-glucoside/RIPA lysis buffer and western blot analysis was performed to assess DPEP-1, DPEP2 and DPEP3 protein expression using specific antibodies; DPEP-1 antibody (Sigma), DPEP2 (Abcam) and DPEP3 (Santacruz). Blots were stripped and reprobed with an anti-β-actin.

human DPEP3 = molecular target: T3, human DPEP3 (human, UniProt Q9H4B8 36-463); assay: as above
T3 construct: whole, on cells; Transiently expressed on Cos-1 cells
T3 sequence (looked up): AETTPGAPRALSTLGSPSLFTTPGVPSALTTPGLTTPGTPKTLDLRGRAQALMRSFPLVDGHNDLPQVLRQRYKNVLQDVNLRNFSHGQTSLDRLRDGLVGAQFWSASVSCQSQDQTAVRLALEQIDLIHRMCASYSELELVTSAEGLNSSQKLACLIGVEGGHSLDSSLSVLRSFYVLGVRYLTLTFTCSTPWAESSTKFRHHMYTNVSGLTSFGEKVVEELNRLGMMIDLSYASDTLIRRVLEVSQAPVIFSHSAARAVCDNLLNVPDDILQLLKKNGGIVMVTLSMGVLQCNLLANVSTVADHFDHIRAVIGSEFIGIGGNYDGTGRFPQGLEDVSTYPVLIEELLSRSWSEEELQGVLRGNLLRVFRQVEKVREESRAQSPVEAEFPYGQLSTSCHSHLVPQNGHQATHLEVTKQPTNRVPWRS
Experimental: as §1

[2] = molecular target: T4, rat membrane dipeptidase (DPEP-1) (rat, UniProt P31430 17-384); assay: immunofluorescence microscopy of Alexa-568 peptide on Cos-7 cells transfected with rat DPEP-1
T4 construct: whole, on cells; Transiently expressed on Cos-1 or Cos-7 cells; also called renal rat membrane dipeptidase; rat DPEP-1
Experimental: Cos-7 cells were transiently transfected with 5 μg of renal rat membrane dipeptidase (DPEP-1) plasmid using lipofectamine 2000 (Invitrogen) reagent. 48 hours after transfection, media was removed and cells were washed with PBS. Cells were incubated with LSALT conjugated with Alexa-488 (Green), GFE-1 peptide conjugated with Alexa-568 (Red) or control peptide conjugated with Alexa-488 (Green) on ice for 30 minutes. Cells were washed and fixed using 4% paraformaldehyde and immunofluorescence microscopy was performed to assess binding. Shown are representative photomicrographs of each experimental condition (n=2).

[3] = molecular target: T4, rat membrane dipeptidase (DPEP-1); assay: immunofluorescence microscopy of Alexa-488 peptide on Cos-1 cells transfected with rat DPEP-1
Experimental: Cos-1 cells were transiently transfected with either 3 or 5 μg of membrane dipeptidase (DPEP-1) cDNA corresponding to the rat (Shown in FIG. 5A) or human DPEP-1 (Shown in FIG. 5B) gene using lipofectamine 2000 (Invitrogen) reagent in OptiMEM medium. 24 hours after transfection, DPEP-1 expressing cells were re-seeded on collagen coated (neutralized) wells in 24 well plates and allowed to grow for 24 hours at 37° C. 24 hours after seeding, media was removed and cells were washed with PBS. Cells were blocked with FBS/NBSA/Tween in PBS for 30 minutes on ice. Cells were then washed with PBS and incubated with Alexa-488 (green) conjugated LSALT, GFE-1, control peptide or DPEP-1 antibody ( 1/100) (Sigma) on ice for 30 minutes. […] After incubation, cells were washed with PBS and treated with 10 mg/ml biotin transfer peptide (LSALT, GFE-1 or Control Peptide (KGAL)] for 10 minutes. Cells were then washed with PBS and biotin transfer was enabled by UV activation of the aryl azide groups for 15 minutes at 363 nm. Residual fluid was removed and monolayers were lysed either with octyl-glucoside/RIPA or 8M urea. Isolated supernatants were rotated with 50 μl of neutr-avidin agarose beads at 4° C. for 24 hours. Beads were washed with corresponding buffers, boiled in Laemmli buffer and analyzed by western blot using a DPEP-1 specific antibody (Proteintech).

[4] = molecular target: T5, human membrane dipeptidase (DPEP-1) (human, UniProt P16444 17-385); assay: immunofluorescence microscopy of Alexa-488 peptide on Cos-1 cells transfected with human DPEP-1
T5 construct: whole, on cells; The background section describes DPEP-1 as a disulfide-linked homodimer; also called renal dipeptidase; dehydropeptidase-1
T5 sequence (looked up): B1 chain

T4 sequence (P31430 17-384): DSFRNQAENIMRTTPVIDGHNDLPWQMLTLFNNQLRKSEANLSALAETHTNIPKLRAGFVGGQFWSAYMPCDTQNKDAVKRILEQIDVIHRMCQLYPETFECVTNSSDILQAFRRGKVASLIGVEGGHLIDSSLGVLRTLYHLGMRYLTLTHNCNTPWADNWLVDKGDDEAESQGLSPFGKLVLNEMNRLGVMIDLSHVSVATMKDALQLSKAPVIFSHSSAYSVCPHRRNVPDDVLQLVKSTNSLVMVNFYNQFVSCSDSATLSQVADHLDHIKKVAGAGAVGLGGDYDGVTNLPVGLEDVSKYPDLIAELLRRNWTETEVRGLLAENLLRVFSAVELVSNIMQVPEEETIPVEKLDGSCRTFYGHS
T2 sequence (Q9H4A9 33-463): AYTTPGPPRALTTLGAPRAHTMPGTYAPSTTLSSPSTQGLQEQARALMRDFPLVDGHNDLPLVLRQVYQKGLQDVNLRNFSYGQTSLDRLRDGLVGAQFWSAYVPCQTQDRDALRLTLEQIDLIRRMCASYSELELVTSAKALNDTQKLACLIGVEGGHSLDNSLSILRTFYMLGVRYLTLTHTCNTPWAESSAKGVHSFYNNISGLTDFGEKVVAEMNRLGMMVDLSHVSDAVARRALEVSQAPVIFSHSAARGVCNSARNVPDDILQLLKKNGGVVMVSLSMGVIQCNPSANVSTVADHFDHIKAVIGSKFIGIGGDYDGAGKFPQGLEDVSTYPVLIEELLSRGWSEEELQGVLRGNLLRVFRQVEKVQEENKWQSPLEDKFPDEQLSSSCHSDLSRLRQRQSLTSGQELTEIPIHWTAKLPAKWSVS

Binder | membrane dipeptidase (DPEP-1) enzyme activity (Gly-D-Phe substrate, fluorimetric detection of D-Phe) [1] | binding result (human DPEP2) | binding result (human DPEP3) | binding result [2] | binding result [3] | binding result [4]
B1 | LSALT does not Inhibit Membrane Dipeptidase (DPEP-1) Enzyme Activity | – | – | – | – | –
B2 | – | no binding | no binding | binds | – | –
B3 | – | no binding | no binding | – | binds | binds
